The target in assay [1] is T1, EphA1 overexpressed on 293T cells (UniProt P21709 26-976, limits assumed).
T1 construct: whole, on cells
T1 sequence (looked up): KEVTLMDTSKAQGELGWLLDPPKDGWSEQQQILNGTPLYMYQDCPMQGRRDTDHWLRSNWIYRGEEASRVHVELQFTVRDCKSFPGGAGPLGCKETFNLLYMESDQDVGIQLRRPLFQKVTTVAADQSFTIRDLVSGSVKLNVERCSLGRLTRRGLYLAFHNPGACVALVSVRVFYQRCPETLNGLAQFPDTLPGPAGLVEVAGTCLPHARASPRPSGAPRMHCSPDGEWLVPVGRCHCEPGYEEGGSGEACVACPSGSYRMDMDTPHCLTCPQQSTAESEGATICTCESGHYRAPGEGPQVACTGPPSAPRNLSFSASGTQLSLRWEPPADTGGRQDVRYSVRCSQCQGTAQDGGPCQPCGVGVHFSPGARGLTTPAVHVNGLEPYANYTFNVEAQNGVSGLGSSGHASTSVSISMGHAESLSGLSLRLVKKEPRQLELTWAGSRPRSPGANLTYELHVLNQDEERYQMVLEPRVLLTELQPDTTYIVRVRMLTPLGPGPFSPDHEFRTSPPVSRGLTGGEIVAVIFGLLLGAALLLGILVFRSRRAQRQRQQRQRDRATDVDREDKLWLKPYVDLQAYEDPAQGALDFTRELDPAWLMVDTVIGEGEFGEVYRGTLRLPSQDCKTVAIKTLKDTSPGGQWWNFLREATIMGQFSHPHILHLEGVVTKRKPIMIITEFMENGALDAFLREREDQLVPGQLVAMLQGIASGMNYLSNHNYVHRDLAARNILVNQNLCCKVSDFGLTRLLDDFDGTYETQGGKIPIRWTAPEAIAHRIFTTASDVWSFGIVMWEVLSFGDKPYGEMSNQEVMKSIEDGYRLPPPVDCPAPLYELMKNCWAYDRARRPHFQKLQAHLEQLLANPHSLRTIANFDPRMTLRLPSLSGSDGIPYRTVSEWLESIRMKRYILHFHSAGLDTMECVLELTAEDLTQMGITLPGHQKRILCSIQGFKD
As to the kind of experiment: flow cytometry on 293T cells overexpressing EphA1-A8. How it is done: To detect the binding specificity of scFv, 293T cells were transformed with EphA1-A8 plasmids individually for overexpression of different EphA molecules. The cell line was freshly prepared and washed with FACS buffer (2% FBS in PBS). The cells were seeded at 1×10⁵ cells/well into a 96-well Ubottom plate and incubated with scFv for 1 h at 4° C. After the plate was washed with FACS buffer, the anti-hemagglutinin (HA) antibody was added for scFv binding detection (scFv was fused with a HA tag) and subsequently developed using an FITC-conjugated secondary antibody. Finally, the cell binding signal was analyzed using a FACS can flow cytometer.
For orientation: Flow cytometry measures light scatter and fluorescence of single cells or particles in a stream.

For another assay, the system named is BxPc-3 cells. The assay can be described thus: Antibody internalization (endocytosis) assay. In kind it is cell-based, human. The note with it: BxPc-3, 1 h, 37° C. vs 4° C. (FIG. 6B). Here is the method: BxPc-3 cells were seeded on cover glasses placed in the wells of a 6-well culture plate. The BxPc-3 seeded glass slides were incubated with ephrin A1-Fc (Sino Biological) or IgG hSD5 for 1 h at 37° C. or 4° C. After washing with PBS, the cells were fixed with 100% ice methanol for 10 min. Next, the cells were stained with an FITC-conjugated anti-human Fc antibody and were subsequently mounted with ProLong Diamond Antifade Mountant comprising 4′,6-diamidino-2-phenylindole for nuclear counterstaining (Invitrogen). The cells were imaged using a confocal microscope (Leica Microsystems).

For assay [2], the target named is T2, endogenous EphA2 molecules on the four brain tumor cell lines (GBM8901, LN229, T98G and U87MG) (Homo sapiens, UniProt P29317).
T2 construct: identifying endogenous EphA2 molecules on the four strains of brain tumor cell lines; endogenous in cells; host or cells: GBM8901, LN229, T98G, U87MG
As to the kind of experiment: Flow cytometry binding on brain tumor cell lines. The note with it: flow cytometry (FIG. 16B). An excerpt: Flow cytometry was used to analyze the response of hSD5 IgG in identifying endogenous EphA2 molecules on the four strains of brain tumor cell lines. PC represents the use of commercial Ab to determine the expression of EphA2 on cancer cells; NC represents the control group with irreverent of the isotype IgG1 antibody. (FIG. 16B)
The hSD5 was used to identify endogenous EphA2 molecules on the four brain tumor cell lines by flow cytometry analysis. PC uses a commercial anti-EphA2 antibody, and NC is the control group with irreverent of the isotype IgG1.

T2 sequence (P29317 24-976, stated change not applied): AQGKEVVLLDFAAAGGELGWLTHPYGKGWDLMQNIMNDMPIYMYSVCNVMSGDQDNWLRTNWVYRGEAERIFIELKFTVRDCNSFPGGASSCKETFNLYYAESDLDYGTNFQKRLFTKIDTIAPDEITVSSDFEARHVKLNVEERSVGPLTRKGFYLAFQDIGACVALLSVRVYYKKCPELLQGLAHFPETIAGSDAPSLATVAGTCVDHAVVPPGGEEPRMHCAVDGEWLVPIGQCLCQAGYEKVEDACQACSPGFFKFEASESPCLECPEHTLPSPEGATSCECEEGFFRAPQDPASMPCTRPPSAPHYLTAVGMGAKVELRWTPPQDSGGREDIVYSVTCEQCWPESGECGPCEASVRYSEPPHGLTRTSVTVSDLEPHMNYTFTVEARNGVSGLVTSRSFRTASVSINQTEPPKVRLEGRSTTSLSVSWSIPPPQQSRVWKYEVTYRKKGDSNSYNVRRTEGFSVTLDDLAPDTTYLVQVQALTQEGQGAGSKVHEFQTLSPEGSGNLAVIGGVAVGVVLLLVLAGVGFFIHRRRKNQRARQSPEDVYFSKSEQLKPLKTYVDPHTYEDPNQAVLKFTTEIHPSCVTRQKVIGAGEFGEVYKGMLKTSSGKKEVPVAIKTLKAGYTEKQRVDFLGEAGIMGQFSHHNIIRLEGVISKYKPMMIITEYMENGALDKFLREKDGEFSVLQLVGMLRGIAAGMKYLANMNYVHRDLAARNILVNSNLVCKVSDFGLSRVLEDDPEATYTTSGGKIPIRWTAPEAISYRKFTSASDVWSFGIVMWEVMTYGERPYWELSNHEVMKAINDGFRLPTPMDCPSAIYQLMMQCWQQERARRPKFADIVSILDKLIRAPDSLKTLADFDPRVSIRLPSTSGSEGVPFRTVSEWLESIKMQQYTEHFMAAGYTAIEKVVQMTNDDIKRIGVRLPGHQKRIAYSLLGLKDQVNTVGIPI

B1: Humanized scFv hSD5 (scFv)
scFv: LTQPPSVSVSPGQTVRITCSGSSGSYGWYQQKSPGQAPVTLIYDNDKRPSGIPERFSGSSSGSTSTLTISGVQAEDEADYYCGSADSSTYVGMFGGGTKLTVLGQSSRSSQVQLVESGGGLVQPGGSLRLSCAASGFTFSDYGMGWVRQAPGKGLEWVAGISAAGSFTPYGAAVKGRFTISRDNSKNTVYLQMNSLRAEDTAVYYCARIPSGYRAGEIYTWGQGTLVTVSS
notes: also called hSD5 scFv; Humanized scFv hSDS
Turning to B1, in assay [1], the binding result is “no binding”.

B2: IgG hSD5: complete humanized anti-EphA2 IgG (IgG1) of hSD5 (antibody, V domains shown)
VH: QVQLVESGGGLVQPGGSLRLSCAASGFTFSDYGMGWVRQAPGKGLEWVAGISAAGSFTPYGAAVKGRFTISRDNSKNTVYLQMNSLRAEDTAVYYCARIPSGYRAGEIYTWGQGTLVTVSS
VL: LTQPPSVSVSPGQTVRITCSGSSGSYGWYQQKSPGQAPVTLIYDNDKRPSGIPERFSGSSSGSTSTLTISGVQAEDEADYYCGSADSSTYVGMFGGGTKLTVL
Regarding B2, the “endocytosis after targeting EphA2” value in the assay with BxPc-3 cells is reported as “endocytosed from the cell membrane into the cytoplasm”. In assay [2], the “binding response to EphA2 molecules on brain cancer cells” value was “significant binding response”.

The values are drawn from patent publication US20250340655A1, “EPHA2-TARGETING ANTIBODIES AND THEIR APPLICATIONS IN CANCER TREATMENT” (TAIPEI MEDICAL UNIVERSITY, priority 2022, published 2025).
